Consider 1 protein from article PMC8191314 (The Journal of Biological Chemistry, 2021).

What is called stoichiometry N is the number of molecules, sites or subunits per partner or assembly.

This data set concerns the molecule itself. In words: cross-linking.

B1: MRCKβ in extracts from HeLa cells (enzyme, UniProt Q9Y5S2 1-1711, looked up)
chain: MSAKVRLKKLEQLLLDGPWRNESALSVETLLDVLVCLYTECSHSALRRDKYVAEFLEWAKPFTQLVKEMQLHREDFEIIKVIGRGAFGEVAVVKMKNTERIYAMKILNKWEMLKRAETACFREERDVLVNGDCQWITALHYAFQDENHLYLVMDYYVGGDLLTLLSKFEDKLPEDMARFYIGEMVLAIDSIHQLHYVHRDIKPDNVLLDVNGHIRLADFGSCLKMNDDGTVQSSVAVGTPDYISPEILQAMEDGMGKYGPECDWWSLGVCMYEMLYGETPFYAESLVETYGKIMNHEERFQFPSHVTDVSEEAKDLIQRLICSRERRLGQNGIEDFKKHAFFEGLNWENIRNLEAPYIPDVSSPSDTSNFDVDDDVLRNTEILPPGSHTGFSGLHLPFIGFTFTTESCFSDRGSLKSIMQSNTLTKDEDVQRDLEHSLQMEAYERRIRRLEQEKLELSRKLQESTQTVQSLHGSSRALSNSNRDKEIKKLNEEIERLKNKIADSNRLERQLEDTVALRQEREDSTQRLRGLEKQHRVVRQEKEELHKQLVEASERLKSQAKELKDAHQQRKLALQEFSELNERMAELRAQKQKVSRQLRDKEEEMEVATQKVDAMRQEMRRAEKLRKELEAQLDDAVAEASKERKLREHSENFCKQMESELEALKVKQGGRGAGATLEHQQEISKIKSELEKKVLFYEEELVRREASHVLEVKNVKKEVHDSESHQLALQKEILMLKDKLEKSKRERHNEMEEAVGTIKDKYERERAMLFDENKKLTAENEKLCSFVDKLTAQNRQLEDELQDLAAKKESVAHWEAQIAEIIQWVSDEKDARGYLQALASKMTEELEALRSSSLGSRTLDPLWKVRRSQKLDMSARLELQSALEAEIRAKQLVQEELRKVKDANLTLESKLKDSEAKNRELLEEMEILKKKMEEKFRADTGLKLPDFQDSIFEYFNTAPLAHDLTFRTSSASEQETQAPKPEASPSMSVAASEQQEDMARPPQRPSAVPLPTTQALALAGPKPKAHQFSIKSFSSPTQCSHCTSLMVGLIRQGYACEVCSFACHVSCKDGAPQVCPIPPEQSKRPLGVDVQRGIGTAYKGHVKVPKPTGVKKGWQRAYAVVCDCKLFLYDLPEGKSTQPGVIASQVLDLRDDEFSVSSVLASDVIHATRRDIPCIFRVTASLLGAPSKTSSLLILTENENEKRKWVGILEGLQSILHKNRLRNQVVHVPLEAYDSSLPLIKAILTAAIVDADRIAVGLEEGLYVIEVTRDVIVRAADCKKVHQIELAPREKIVILLCGRNHHVHLYPWSSLDGAEGSFDIKLPETKGCQLMATATLKRNSGTCLFVAVKRLILCYEIQRTKPFHRKFNEIVAPGSVQCLAVLRDRLCVGYPSGFCLLSIQGDGQPLNLVNPNDPSLAFLSQQSFDALCAVELESEEYLLCFSHMGLYVDPQGRRARAQELMWPAAPVACSCSPTHVTVYSEYGVDVFDVRTMEWVQTIGLRRIRPLNSEGTLNLLNCEPPRLIYFKSKFSGAVLNVPDTSDNSKKQMLRTRSKRRFVFKVPEEERLQQRREMLRDPELRSKMISNPTNFNHVAHMGPGDGMQVLMDLPLSAVPPSQEERPGPAPTNLARQPPSRNKPYISWPSSGGSEPSVTVPLRSMSDPDQDFDKEPDSDSTKHSTPSNSSNPSGPPSPNSPHRSQLPLEGLEQPACDT
For B1, the “stoichiometry N” value turned out to be 2.
